The text below walks through data of article PMC10668032, “Altered binding affinity of SIX1-Q177R correlates with enhanced WNT5A and WNT pathway effector expression in Wilms tumor”.

For data set [1], the target named is T1, SIX1 (human, UniProt Q15475 1-284).
T1 sequence: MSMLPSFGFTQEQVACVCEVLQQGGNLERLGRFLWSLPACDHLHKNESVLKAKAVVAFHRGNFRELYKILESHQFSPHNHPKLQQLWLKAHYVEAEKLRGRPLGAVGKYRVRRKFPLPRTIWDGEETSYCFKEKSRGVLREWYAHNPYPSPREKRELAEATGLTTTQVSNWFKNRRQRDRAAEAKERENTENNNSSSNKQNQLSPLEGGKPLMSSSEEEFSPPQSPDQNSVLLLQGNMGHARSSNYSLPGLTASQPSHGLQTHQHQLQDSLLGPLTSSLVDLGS
As to the kind of experiment: EMSA; EMSA: Active Motif Gelshift or Thermo LightShift chemiluminescent kit binding buffer, no glycerol, no poly d(I-C), RT 25 min; protein dilutions 1-300 nM; 6% gel in 0.5x TBE; pH and salt not given. Particulars: protein: recombinant; tags: N-terminal HA from pGEX-6p1-N-HA (GST removed with PreScission); label: biotin 3' end (both strands, Pierce 3' end-labeling kit); blunt.

Data set [2] has as its target T1, SIX1. The experiment in a line: EMSA; modest increase in affinity vs N1; EMSA: Active Motif Gelshift or Thermo LightShift chemiluminescent kit binding buffer, no glycerol, no poly d(I-C), RT 25 min; protein dilutions 1-300 nM; 6% gel in 0.5x TBE; pH and salt not given. Conditions: protein: recombinant; tags: N-terminal HA from pGEX-6p1-N-HA (GST removed with PreScission); label: biotin 3' end (both strands, Pierce 3' end-labeling kit); blunt.

Where a chain is given by its changes, count along the chain named.

B1: WNT5A_promoter_EMSA (dsDNA)
DNA 1: CCCGCCCTAAGTGTCAAATTTCCTCCAGGGGAG
DNA 2: CTCCCCTGGAGGAAATTTGACACTTAGGGCGGG
Turning to B1, the binding signal in the data set with SIX1 [1] was ~0.1 affinity relative to SIX1-Q177R on same probe.

B2: WNT5A_promoter_EMSAmut (dsDNA)
DNA 1: B1 DNA 1 with G13A
DNA 2: B1 DNA 2 with C21T
Turning to B2, the binding result with SIX1 [2] was “binds”.
